Source: paper PMC4909209

Biological target: ubiquitin tagged Ac-AChBP (Aplysia californica acetylcholine binding protein) (Aplysia californica)
Test: SEC; analytical Superdex 200 10/300 calibrated with molecular weight standards; oligomerization state in solution

## ubiquitin tagged Ac-AChBP (Aplysia californica acetylcholine binding protein) (natural protein)
  stoichiometry N: 5
